For this data set, the system named is MS2 coat protein. Briefly: apparent KD of MS2 coat protein; designed switch direction (-1 OFF switch, 1 ON switch): -1; higher = weaker reporter binding. The gist of the method:
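The reported apparent KD is a per-design median over clusters, from curve fits of normalised cluster fluorescence. Protein titrations used SNAP-549-labelled MS2 coat protein, doubled from 0.7 or 1.5 nM to 3 µM, in Tris-HCl pH 7.5 buffer with KCl, MgCl2, BSA, DTT, tRNA and Tween-20, with no input, 200 uM small-molecule ligand, or an oligonucleotide input. The RNA switches were transcribed on Illumina chips by stalled E. coli RNA polymerase.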

The mark [1] stands for this setting: input ligand: microRNA oligo, concentration not stated.
Where [2] appears, read: Eterna round: R95, input ligand: FMN 200 uM.
[3] abbreviates: Eterna round: R95, input ligand: microRNA oligo, concentration not stated.
Where [4] appears, read: Eterna round: R95, input ligand: none.

As to “GAAUAGCGAGGAUAUACAUGAGGAUCACCCAUGUGAUCCUUAGGCUGUUCAAGCCUAUGUAGAAGGCGCAAAUU [jl-ex3.4.56 ViennaUCT mod] (Eterna round: R97, puzzle: Exclusion 3)”, the “apparent KD of MS2 coat protein” value was determined as 86.2 nM (input ligand: FMN 200 uM) and 335 nM (input ligand: none).

For the sequence “GUACGGUAAGGAUAUUGGAGGCCAAAGCACGAGUAGUACUCUAAGAAGGUACAUGAGGAUCACCCAUGUACGAG [Eternabot (L2) Solution 63] (Eterna round: R97, puzzle: Exclusion 4)”, the “apparent KD of MS2 coat protein” value by setting is: (input ligand: FMN 200 uM) 18.8 nM; (input ligand: none) 16.9 nM.

As for “UACAAGCUUUGGCGAUCCUACAUGAGGAUCACCCAUGUGGGCCCGCCAGAGGCGGGCCCAUUUGCCCGUCUUGUGAA [Energy optimization 2] (Eterna round: R97, puzzle: Sensor, turn-off variant 1)”, the “apparent KD of MS2 coat protein” value worked out at 16.3 nM (input ligand: FMN 200 uM) and 16.3 nM (input ligand: none).

Consider “CUCGUGCAGCUUUGCUGUACGAGUACAUGAGGAUCACCCAUGUAGGAUAUGGUACGCUUUGCGUGCUAGAAGGAUAUGUGUAGG [JL EXNG3 1.38] (Eterna round: R96, puzzle: Exclusion NG 3)”, for which the “apparent KD of MS2 coat protein” value by setting is: (input ligand: FMN 200 uM) 44.1 nM; under setting [1], 18.4 nM; (input ligand: none) 31.3 nM.

With “AGGAAACAUGAGGAUCACCCAUGUGAGGAUAUGAAAAAGAAAAGAAAAGAAAGAAGAAUCAGAAGGCACAAAGG [Mat - Mod of Hog D1] (puzzle: Exclusion 1)”, the “apparent KD of MS2 coat protein” value runs as follows: under setting [2], 52.9 nM; under setting [3], 32 nM; under setting [4], 45.9 nM.

As for “UAUUAGCAAGCAACUGGGUACAUGAGGAUCACCCAUGUGCUCGUCUUAUAAGGUACUGUUACGAAAGUCACGGUACC [mod--Eli12] (Eterna round: R97, puzzle: Sensor, turn-off variant 1)”, the “apparent KD of MS2 coat protein” value reads like this: (input ligand: FMN 200 uM) 17.3 nM; (input ligand: none) 15.9 nM.

Turning to “GCACGGAGUGUAGGAUAUCUGUGCGAUUAGCUCAGAGAAGGACACAUGAGGAUCACCCAUGUGUUCCACGGAAACGUUCCGUGC [Eli exng1 - 049] (Eterna round: R96, puzzle: Exclusion NG 1)”, the “apparent KD of MS2 coat protein” value (input ligand: FMN 200 uM) amounted to 8.96 nM, the “apparent KD of MS2 coat protein” value under setting [1] worked out at 7.93 nM and the “apparent KD of MS2 coat protein” value (input ligand: none) stood at 11.9 nM.

As to “ACGUACUGAGGAUAUACGAACAUGUCAAAAGACGUGAAGGGACAUGAGGAUCACCCAUGUAGAAGGCAGUACGA [Mat - Exclusion 2 - JL mod - D7] (Eterna round: R96, puzzle: Exclusion 2)”, the “apparent KD of MS2 coat protein” value under setting [1] is 32.7 nM.

As for “GCAGCGUAUGUAGGAUAUCGGUCAGUUUCUGAUCGAGAAGGACAUGAGGAUCACCCAUGUAUUAUCAUGCGUGAGCAUGGCUGC [JL ENG1 3.71] (Eterna round: R96, puzzle: Exclusion NG 1)”, the “apparent KD of MS2 coat protein” value (input ligand: FMN 200 uM) amounted to 499 nM, the “apparent KD of MS2 coat protein” value under setting [1] turned out to be 115 nM and the “apparent KD of MS2 coat protein” value (input ligand: none) came out at 152 nM.

For the sequence “AAUAGGACAGGAUAUCCGGAGUCGAACAUGAGGAUCACCCAUGUGAUGAGGAUGUUCGCUGGAGAAGGGUCUGGCU [Atisdiis] (puzzle: Exclusion 5)”, the “apparent KD of MS2 coat protein” value reads like this: under setting [2], 83.9 nM; under setting [3], 124 nM; under setting [4], 176 nM.

As for “GAGUGCUGAGGAUAUACAUGAGGAUCACCCAUGUACUUCAGCUAGGAGACUAGCAUUGGUAGAAGGCAGUACUC [Mod of lroppy 22 - Jieux - Exclusion 3] (Eterna round: R97, puzzle: Exclusion 3)”, the “apparent KD of MS2 coat protein” value was 20.7 nM (input ligand: FMN 200 uM) and 14.2 nM (input ligand: none).

“UCCGCGCGCUUGCGCGCGGACAUGAGGAUCACCCAUGUCGGGCUUUUUGCUCGUUUUGUUGCGCGCGUUCGCGCGCG [Revision to Olbi_3 by Sunset] (Eterna round: R97, puzzle: Sensor, turn-off variant 1)”: the “apparent KD of MS2 coat protein” value (input ligand: FMN 200 uM) came to 89.1 nM and the “apparent KD of MS2 coat protein” value (input ligand: none) came to 101 nM.

Turning to “GGAUCGAAUGUGAGGAUAUGCAGGUCCUUGGAUCUGCAGAAGGCACAUGAGGAUCACCCAUGUGAUCAAGAUCC [Mat - Exclusion 4 - Eli Mod - D48] (Eterna round: R97, puzzle: Brourd's mod of Exclusion 4)”, the “apparent KD of MS2 coat protein” value (input ligand: FMN 200 uM) came out at 63 nM and the “apparent KD of MS2 coat protein” value (input ligand: none) was found to be 772 nM.

As to “AAUAACAGAGGAUAUACUAUUUUAUGUGUUUGUUGUUUUGAACAUGAGGAUCACCCAUGUAGAAGGCUGAAUGA [JMF 69] (puzzle: Exclusion 2)”, under setting [3], the “apparent KD of MS2 coat protein” value is 25.3 nM.

As for “UCAAUGCGAGGAUAUACGCACAAUUACAUGAGGAUCACCCAUGUCAUGAACUUUGGUAAGGUAGAAGGCGCUCCGU [Eternabot (L1) Solution 13] (Eterna round: R97, puzzle: Exclusion 5)”, the “apparent KD of MS2 coat protein” value reads like this: (input ligand: FMN 200 uM) 32.4 nM; (input ligand: none) 41 nM.

Regarding “UAAGAUUACCGAGGAUAUGGUAAUUUUUGUUAACCAGAAGGCGGACUCAACAUGAGGAUCACCCAUGUAUAAAGGGUAUUAGUU [JR_ExcNG1_Sub040] (Eterna round: R96, puzzle: Exclusion NG 1)”, the “apparent KD of MS2 coat protein” value runs as follows: (input ligand: FMN 200 uM) 100 nM; under setting [1], 74.2 nM; (input ligand: none) 96.4 nM.

For “GAGGGAGGAGGAUAUUCCUUCGAGAACAUGAGGAUCACCCAUGUGUUAUAUCGAAAGCCCGAAGAAGGCCUCGCUA [Eternabot (Original) Solution 50] (Eterna round: R97, puzzle: Exclusion 5)”, the “apparent KD of MS2 coat protein” value by setting is: (input ligand: FMN 200 uM) 17.5 nM; (input ligand: none) 20.2 nM.

Take “UCGUGAUUAGAGGAUAUAUUAAGAGUCAGAACAAUAGAAGGCUAAACAUGAGGAUCACCCAUGUAAAUGUGAAA [JR_Ex6_Sub060] (Eterna round: R97, puzzle: Exclusion 6)”: the “apparent KD of MS2 coat protein” value stood at 172 nM (input ligand: FMN 200 uM) and 35.5 nM (input ligand: none).

Consider “GUAAAGUGAGGAUAUGGUAAUUUAAUUAUUAAUUAAUUAAUCCAGAAGGCACAUGAGGAUCACCCAUGUAAAGG [Mat - Exclusion 4 - D93] (puzzle: Exclusion 4)”, for which, under setting [3], the “apparent KD of MS2 coat protein” value was determined as 34.6 nM.

Consider “GCGCCAUCGUGAGAUGGCGUACCGACAUGAGGAUCACCCAUGUAGGAUAUCGAUUGCUUUGCAGUCGAGAAGGGCGUGAUAAGU [JL ENG3 3.74] (Eterna round: R96, puzzle: Exclusion NG 3)”, for which the “apparent KD of MS2 coat protein” value (input ligand: FMN 200 uM) stood at 27.8 nM, the “apparent KD of MS2 coat protein” value under setting [1] amounted to 24.7 nM and the “apparent KD of MS2 coat protein” value (input ligand: none) came to 29.5 nM.

Consider “GCGUGGACUGAGGAUAUCCGAACGGUGCACGGAGGAGAAGGUAGGACAUGAGGAUCACCCAUGUGAACCUAGAU [Ceinormaat] (Eterna round: R97, puzzle: Exclusion 6)”, for which the “apparent KD of MS2 coat protein” value runs as follows: (input ligand: FMN 200 uM) 20.6 nM; (input ligand: none) 19.8 nM.

Consider “AGCCACAGAGGAUAUACAUACAUCCAGUAGUAGAGUCUACUACAUGAGGAUCACCCAUGUAGAAGGCUGUGGCA [Omei Ex2 BD B16] (Eterna round: R97, puzzle: Exclusion 2)”, for which the “apparent KD of MS2 coat protein” value runs as follows: (input ligand: FMN 200 uM) 419 nM; (input ligand: none) 37.1 nM.

For the sequence “ACAUGAGGAUCACCCAUGUCCGGCUGGUCCGUCUCGGCUGUCGAGGAUAUGGCUCGGUGUCCGCGCUAGAAGGUGGGAGCCGGU [Aenatbe mod 74] (Eterna round: R96, puzzle: Exclusion NG 3)”, the “apparent KD of MS2 coat protein” value runs as follows: (input ligand: FMN 200 uM) 100 nM; under setting [1], 54 nM; (input ligand: none) 103 nM.

(Values after the supplement of paper PMC9170038.)
